What was measured:
[1] = molecular target: SIRPα variant (10), three domain construct with rat CD4d3+4 tag (human); assay: SPR; as a1, CD47 at 22 uM passed over again after OX130 MAb had been passed over the immobilised SIRP proteins
[2] = molecular target: SIRPα variant (10), three domain construct with rat CD4d3+4 tag (human); assay: SPR; BIAcore 3000; SIRP proteins captured through their rat CD4d3+4 tag on the rat CD4 MAb OX68 immobilised on a CM5 chip (about 1000 RU); human CD47 at 22 uM passed over; RU of the control rat CD4 domains 3 and 4 subtracted

Chain of SIRPα variant (10), three domain construct with rat CD4d3+4 tag (human) (main, as listed by the source mutant): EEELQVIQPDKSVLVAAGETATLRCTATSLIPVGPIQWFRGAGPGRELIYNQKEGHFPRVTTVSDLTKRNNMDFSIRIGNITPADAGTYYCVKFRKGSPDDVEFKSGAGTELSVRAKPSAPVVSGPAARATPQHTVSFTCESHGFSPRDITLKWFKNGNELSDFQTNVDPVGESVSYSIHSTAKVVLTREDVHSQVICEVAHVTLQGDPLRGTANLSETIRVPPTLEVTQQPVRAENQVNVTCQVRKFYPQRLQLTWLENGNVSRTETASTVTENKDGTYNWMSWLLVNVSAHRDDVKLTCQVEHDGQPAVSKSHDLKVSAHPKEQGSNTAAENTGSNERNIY

response units (RU) after OX130 injection [1]: 247 RU
response units (RU) [2]: 280 RU
Substance: Human CD47 (from UniProt Q08722 19-141) (ligand)
